Reference: publication PMC6745501, “Plant photoreceptors and their signaling components compete for COP1 binding via VP peptide motifs” (The EMBO Journal, 2019)

Biological target: UVR8^HY5C44 chimera (recombinant) (Arabidopsis)
Test: SEC; purified recombinant chimeric UVR8 proteins alone, in the absence of UV-B

Q: Which stoichiometry N does the source give for UVR8^HY5C44 chimera (recombinant) here?
A: The stoichiometry N was 2.
